Values of other authors in PMC4775371.
pKd: −log10 of the molar value.

Molecular target: H1.0 (UniProt P07305)
Chain of UniProt P07305 (P07305 2-194): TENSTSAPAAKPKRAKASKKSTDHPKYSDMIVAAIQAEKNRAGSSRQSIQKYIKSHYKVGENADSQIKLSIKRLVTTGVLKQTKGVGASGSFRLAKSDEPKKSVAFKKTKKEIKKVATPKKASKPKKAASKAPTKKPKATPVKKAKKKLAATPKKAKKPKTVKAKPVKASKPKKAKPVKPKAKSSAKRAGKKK

FACT (from UniProt Q9Y5B9)
pKd: 7.49
